In US20170360931A1:

Tests used:
Test in all cases: cell-based or functional assay
[1] = target: HA of A/California/04/2009 (H1N1) virus (influenza A virus A/California/04/2009 (H1N1))
[2] = target: all H3N2 and H7 strains (plaque reduction assay)
[3] = target: HA of wild type A/Shanghai/1/2013 (H7N9) virus (influenza A virus A/Shanghai/1/2013 (H7N9))

B1: S6-B01 (antibody, V domains shown)
VH: QVQLVQSGAEVKKPGASVKVSCKASGYTFNSYGISWVRQAPGQGLEWMGWISAYTGDTKFAQNVQGRVTMTIDTSTSTAYMELRSLRSDDTAVYYCARHYLQGVVVVDPYSHAMDVWGQGTTVTVSS
VL: EIVLTQSPGTLSFFPGERATLSCRASQTINSRFLAWYQQKPGQAPRLLIYGASSRATGIPDRFSGRGSGTDFTLAISRLEPEDFAVYYCQLYGSSRTTFGQGTKVEIK
What does the source list for B1?
PRNT50 (plaque reduction assay) [1]: > 120 µg/mL; PRNT50 (plaque reduction assay) [2]: 3 to 6 µg/mL

B2: 042-100809-2F04 (antibody, V domains shown)
VH: EVQLVESGGGLVQPGGSLRLSCVASGFTFSTPWMTWIRQAPGKGLEWVAHIKQDGSETYYVDSVKGRFTISRDNAKNSLYLQMNSLKAEDTALYYCARMTRESSENYWGQGTLVTVSS
VL: DVVMTQSPLSLPVTLGQPASISCRSSQSLVYSDGDTFLEWFQQRPGQSPRRLIYKVSNRDSGVPDRFSGSGSGTDFTLKISRVEAEDVGLYYCMQHTHWPHTFGQGTKVEIK
Which PRNT50 (plaque reduction assay) [3] does the source give for B2 here?
The PRNT50 (plaque reduction assay) was 27 µg/mL.
